Measurements published in publication PMC4204210 (Molecular cell, 2014).

B1: Get3 purified under reducing conditions (Get3red) (natural protein, yeast)
chain: MDLTVEPNLHSLITSTTHKWIFVGGKGGVGKTTSSCSIAIQMALSQPNKQFLLISTDPAHNLSDAFGEKFGKDARKVTGMNNLSCMEIDPSAALKDMNDMAVSRANNNGSDGQGDDLGSLLQGGALADLTGSIPGIDEALSFMEVMKHIKRQEQGEGETFDTVIFDTAPTGHTLRFLQLPNTLSKLLEKFGEITNKLGPMLNSFMGAGNVDISGKLNELKANVETIRQQFTDPDLTTFVCVCISEFLSLYETERLIQELISYDMDVNSIIVNQLLFAENDQEHNCKRCQARWKMQKKYLDQIDELYEDFHVVKMPLCAGEIRGLNNLTKFSQFLNKEYNPITDGKVIYELEDKE
B2: Get3 oxidised with 2 mM H2O2 / 50 µM Cu2+ (Get3ox) (natural protein, yeast)
chain: B1 chain
modifications: intramolecular disulfide bonds connecting the next-neighbor conserved cysteines (C242/C244 and C285/C288)

Biological target: the molecule itself
Assay: SEC-MALS

| Protein | stoichiometry N |
| --- | --- |
| B1 | 2 |
| B2 | 4 |
